Measured values from the RNAGym collection of RNA variant scans (doi:10.1073/pnas.2313332121).
Fewer inactive variants are shown than the library holds.

B1: TPR 5TU (parent)
chain: GGAUCUUCUCGAUCUAACAAAAAAGACAAAUCUGCCACAAAGCUUGAGAGCAUCUUCGGAUGCAGAGGCGGCAGCCUUCGGUGGCGCGAUAGCGCCAACGUUCUCAACUAUGACACGCAAAACGCGUGCUCCGUUGAAUGGAGUUUAUCAUG

Variants of: B1
Assay: polymerase ribozyme fitness, log enrichment relative to wild type (log ratio); higher = more active; in vitro selection for triplet polymerase activity
Procedure, shortened: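 Mutant libraries for each subunit of a heterodimeric triplet polymerase ribozyme were made by PCR and then transcribed. Each library underwent one round of in vitro selection in triplicate: annealing with a biotinylated primer, the partner subunit and triplets, frozen incubation at −7 °C, gel excision of extended constructs, streptavidin-bead capture and RT-PCR. Input and output libraries were Illumina-sequenced, and only genotypes with ≥10 input reads and ≥1 read per output were kept. Fitness is the logarithm, base 2, of genotype enrichment over wild-type enrichment, computed from inverse-variance-weighted replicate averages.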
With GGAUCUUCUCGAUCUAACAAAAACGACAAAUCUGCCACAAAGCUUGAGAGCAUCUUCAAAUGCAGAGGCGGCAGCCUUCGGUGGCGCGAUAGCGCCAACGUUCUCAACUAUGACACGCAAAACGCGUGCUCCGUUGAAUGGAGUUUCUCAUG the “polymerase ribozyme fitness (log ratio)” value was at most -4.2.
In the case of GGAUCUUCUCGAUCUAACAAAAAAGACAAAUCUGCCACAAAGCUUGAGAGCAUCUUCGCAUGCAGAGGCGGCAGCCUUCGGUGGCGAGAUAGCGCCAACGCUCUCAACUAUGACACGCAAAACGCGUGCUCCGUUGAAUGUAGUUUUUCAUG, the “polymerase ribozyme fitness (log ratio)” value is reported as at most -4.2.
With GGAUCUUCUCGAUCUAACAAAAAAGACAAAUCUGCCACAAAGCUUGACAGCAUCUUCGGAUGCAGAGGCGGCAGCCUUCGGUGGAGCGAUAGCGCCAACGUUCUCAACUAUGACACGAAAAACGCGUGCUCCGUUGAAUGGAGUUUAUCAUG the “polymerase ribozyme fitness (log ratio)” value was -1.39.
For GGAUCUUCCCGAUCUAACAAAAAAGACAAAUCUGCCCCAAAGCUUGAGAGCAUCGUCGGAUGCAGCGGCCGCAGCAUUCGGUGGCGCGAUAGCGCCAACGUUCUCAACUAUGACACGCAAAACGCGUGCUUCGUUGAAUGGAGUUUAUCAUG, the “polymerase ribozyme fitness (log ratio)” value was at most -4.2.
For GGAUCUUCUCGAUCUAGCAAAAAAGACAAAUCUGCCAGAAAGCUUGAGAGAAUCUUCGGAUGCAGAGGCGGCAGCCUGCGGUGGCGCGAGAGCGCCAACGUUCUCAACUAUGACACGCAAAACGCGUGCUACGUUGAAUGGAGUUUAUCAUG, the “polymerase ribozyme fitness (log ratio)” value was at most -4.2.
For GGAUCUUCUCGAUCUAACAAAAAAGACAAAUCUGCCACAAAGCUUGAGAGCAUCUUCGGAUGCAGAGGCGGCAGCCUUCGGUGGCGCAAUAACGCCAACGUUCUCAACUAUGACACGCAAAACGCGUGCUCGGUUGAAUGGAGUUUAACAUG, the “polymerase ribozyme fitness (log ratio)” value was at most -4.2.
For GGAUCUUCUCGAUCUAACAAAAAAGACAAAUCUGCCAAAAAGCUUGAGAGCAUCUUCGGAUGCAGAGGCGGCAGCCUUCGGUGGAGCGAUAGCGCCAACGUUCUCAACUAUGACACGCAAAACGCGUGCUCCGUUGAAUGGAGUUUAUCAUG, the “polymerase ribozyme fitness (log ratio)” value was -2.61.
With GGAUCUUCUCGAUCUAACAAAAAAGACAAAUCUGCCACAAAGCUUGAGAGCAUCUUCGGAUGCAGAGGCGGCAGCCUUCGGUGGCGCGAUAGAGCCAACGUUCUCAACUAUGACACGCAAAACGCGUGCUCCGUUGAAUGGAGUUUAGCAUG the “polymerase ribozyme fitness (log ratio)” value was at most -4.2.
In the case of GGAUCUUCUCGUUCUAACAAAAAAGACAAAUCUGCCACUAAGCUUGAGAGCAGCUUCGGAUGCAGAGGCGGCAGCCUUCGGUGGCGCGAUAGCGCCAACGUUCUCAACUAUGACACGCAAAACGCUUGCUCCGUUGAAUGGAGUUUAUCAUG, the “polymerase ribozyme fitness (log ratio)” value is reported as -4.09.
In the case of GGAUCUUCUCGAUCUAACAAAAAAGACAAAUCUGCAACAAAGCUUGAGAGCAUCUUCGGAUGCAGACCCGGCUGCCUUCGGUGGCGAGAUAGCGCCAACGUUCUCAACUAUGACACGCAAAACGCGUGCUCCGUUGAAUGGAGUUUACCAUG, the “polymerase ribozyme fitness (log ratio)” value is reported as at most -4.2.
With GGAUCUUCUCGAUCUAACAAAAAAGACAAAUCUGCCACAAAGCUUGAGAGCAUCAUCGGAUGCAGAGGCGGCAGCCUUCGGUGGCGCUAUAGCGCCAACGUUCUCAACUAUGACACGCAAAACGCGUGCUCCGUUGAAUGGAGUUUAUCAUG the “polymerase ribozyme fitness (log ratio)” value was -4.14.
With GGAUCUUCUCGAUCUAACAAUAAAGACAAAUCUGCCACAAAGCUUGCGAGCCUCUUCGGGUGCAGAGGCGGCAGCCUUCGGUGGGGAGAUAGCGCCAACGUUCUCAACUAUGACACGCAACACGCGUGCUCCGUUGAAUGGAGUUUAUCAUG the “polymerase ribozyme fitness (log ratio)” value was at most -4.2.
In the case of GGAUCUUCUCGAUCUAACAAUAAAGACAAAUCUGCCAAAAAGCUUGAGAGCAUCUUUGGAUGCAGAGGCGGCAGCCUUCGGUGGCGCGAUAGCGCCAACGUGCUCAACUAUGACACGCUAAACGCGUGCUCCGUUGAAUGGAGUUUAUCAUG, the “polymerase ribozyme fitness (log ratio)” value is reported as at most -4.2.
In the case of GGAUCUUCUAGAUCUAACAAAAAAGACAAAUCUGCCACAAAGCUUGAGAGCAUCUUCGGAUGCAGAGGCGGCAGCCUUCGGUGGCGUGAUAGCGCCAACGUUCUCAACUAUGACACGCAAAACGCGUGCUCCGUUGAAUGGAGUUUAUCAUG, the “polymerase ribozyme fitness (log ratio)” value is reported as -3.47.
In the case of GGAUCUUCUCGAUCUAACAAAAAAGACAAUUCUGCCACAAAGCUUGAGAGCAUCUUCGGAUGCAGAGGCGGCAGCCUUCGGUGGCGCCAUAUCGACAACGUUCUCAACUAUGACACGCAAAACGCGUGCUCCGUUGAAUGGAGUUUAUCAUG, the “polymerase ribozyme fitness (log ratio)” value is reported as at most -4.2.
With GGAUCUUCUCGAUCUAACAAAAAAGACAAAUCUGCCACAAAGCUUGAGAGAAUCUUCGGAUGAAGAGGCGGCAGCCUUCGGAGGCGCGAUAGCGCCAACGUUCUCAACUAUGACACGCAAAACGCGUGCUCCGUUGAAUGGAGUUUAUCAUG the “polymerase ribozyme fitness (log ratio)” value was -0.419.
For GGAUGUUCUCGAUCUAACAAAAAAGACAAAUCUGCCACAAAGCUUGAGAGCAUCGUCGGAUGCAGAGGCGGCAGCCUUGGGUGGUGCGAUAGCGCCAACGUUCUCAACUAUGACACGCAAAACGCGUGCGCCGUUGAAUGGAGUUUAUCAUG, the “polymerase ribozyme fitness (log ratio)” value was at most -4.2.
With GGAUCUUCUCGAUCUAACAAAAUAGACAAAUCUGCCACAAAGCUUGAGAGCAUCUUCGGAUGCAGAGGCGGCAGCCUUCUGUGGCGCGAUUGCGCCAACGUUCUCAACUAUGACACGCAAAACGCGUGCUCCGUUGAAUGGACUUUAUCGUG the “polymerase ribozyme fitness (log ratio)” value was at most -4.2.
In the case of GGAUCUUCUCGAUCUAACAAAAAAGACAAAUCUGCCACAAAGCUUGAGAGCAUCCUCGAAUGCAGAGGCGGCAGCCUUCGGUGGCGCGAUAGCGCAAACGUUCUCAACUAUGACACGCAAAACGCGUGCUCCGUUGAAUGGAGUUUAUCAUG, the “polymerase ribozyme fitness (log ratio)” value is reported as -3.02.
